According to PMC5825165, “EAT1 transcription factor, a non-cell-autonomous regulator of pollen production, activates meiotic small RNA biogenesis in rice anther tapetum” (PLoS Genetics, 2018):
Each block holds one binder with its values, some of them ahead of it.

Molecular target: T1, UDT1-nYFP (UNDEVELOPED TAPETUM1 fused with the N-terminal split of YFP) (rice (japonica cv. Nipponbare), UniProt B9FXT3 1-234)
T1 sequence (looked up): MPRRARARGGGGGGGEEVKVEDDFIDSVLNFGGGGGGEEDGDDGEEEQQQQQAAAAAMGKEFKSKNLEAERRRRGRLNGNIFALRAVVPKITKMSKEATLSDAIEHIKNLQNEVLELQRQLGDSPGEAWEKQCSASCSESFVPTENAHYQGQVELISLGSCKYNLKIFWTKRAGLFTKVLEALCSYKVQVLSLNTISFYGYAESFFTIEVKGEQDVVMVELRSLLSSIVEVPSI
Test: cell-based or functional assay

- transient expression assay in rice protoplasts: firefly Luciferase activity of the 24-PHAS chr5-20 promoter on EAT1-UDT1 cotransfection (untagged effectors), fold against the no effector control: 4.46 fold
- transient expression assay in rice protoplasts: firefly Luciferase activity of the 24-PHAS chr6-97 promoter on EAT1-UDT1 cotransfection (untagged effectors), fold against the no effector control: 3.99 fold
- transient expression assay in rice protoplasts: firefly Luciferase activity of the EAT1 promoter (pEAT1) on EAT1-UDT1 cotransfection (untagged effectors): 7.61 fold
B1: EAT1-cYFP (ETERNAL TAPETUM1 fused with the C-terminal split of YFP) (natural protein, rice (japonica cv. Nipponbare), UniProt Q7X8R0 1-464, looked up)
chain: MIVGAGYFEDSHDQSLMAGSLIHDSNQAPASSENTSIDLQKFKVHPYSTEALSNTANLAEAARAINHLQHQLEIDLEQEVPPVETANWDPAICTIPDHIINHQFSEDPQNILVEQQIQQYDSALYPNGVYTPAPDLLNLMQCTMAPAFPATTSVFGDTTLNGTNYLDLNGELTGVAAVPDSGSGLMFASDSALQLGYHGTQSHLIKDICHSLPQNYGLFPSEDERDVIIGVGSGDLFQEIDDRQFDSVLECRRGKGEFGKGKGKANFATERERREQLNVKFRTLRMLFPNPTKNDRASIVGDAIEYIDELNRTVKELKILVEQKRHGNNRRKVLKLDQEAAADGESSSMRPVRDDQDNQLHGAIRSSWVQRRSKECHVDVRIVDDEVNIKLTEKKKANSLLHAAKVLDEFQLELIHVVGGIIGDHHIFMFNTKVSEGSAVYACAVAKKLLQAVDVQHQALDIFN

- transient expression assay in rice protoplasts: firefly Luciferase activity of the 24-PHAS chr5-20 promoter on TIP2-UDT1 cotransfection (untagged effectors): 8.63 fold
- transient expression assay in rice protoplasts: firefly Luciferase activity of the 24-PHAS chr6-97 promoter on TIP2-UDT1 cotransfection (untagged effectors): 2.73 fold
- transient expression assay in rice protoplasts: firefly Luciferase activity of the DCL5 promoter (pDCL5) on TIP2-UDT1 cotransfection (untagged effectors): 4.91 fold
- transient expression assay in rice protoplasts: firefly Luciferase activity of the EAT1 promoter (pEAT1) on TIP2-UDT1 cotransfection (untagged effectors): 5.72 fold
B2: TIP2-cYFP (TDR INTERACTING PROTEIN2 fused with the C-terminal split of YFP) (natural protein, rice (japonica cv. Nipponbare), UniProt Q5JNS0 1-379, looked up)
chain: MYHPQCELLMPLESLEMDVGQSHLAAAVAAAMPGELNFHLLHSLDAAAAAASSTAASASSQPTVDYFFGGADQQPPPPAAMQYDQLAAPHHHQTVAMLRDYYGGHYPPAAAAAAATEAYFRGGPRTAGSSSLVFGPADDESAFMVGPFESSPTPRSGGGRKRSRATAGFHGGGPANGVEKKEKQRRLRLTEKYNALMLLIPNRTKEDRATVISDAIEYIQELGRTVEELTLLVEKKRRRREMQGDVVDAATSSVVAGMDQAAESSEGEVMAAAAMGAVAPPPRQAPIRSTYIQRRSKETFVDVRIVEDDVNIKLTKRRRDGCLAAASRALDDLRLDLVHLSGGKIGDCHIYMFNTKIHSGSPVFASAVASRLIEVVDEY
